Test results as given in patent publication US20180030149A1 (AVEO PHARMACEUTICALS, published 2018).

Assays:
[1] = target: T1, recombinant human ErbB3/Fc fusion protein (human, UniProt P21860 20-643); assay: ECL competition; inhibition of NRG1-β1 binding to plate-coated rhErbB3/Fc
T1 construct: Bought (R&D Systems, Cat. No. 348-RB); the NRG1-α1 assay names Cat. No. 4518-RB instead; also called rhErbB3-Fc; rhErbB3/Fc; not shown: Fc portion of the bought fusion protein
Description: Multi-array 96-well standard binding plates (Meso Scale Discovery, Cat. No. L15XA-3) were coated with 50 μl of 0.5 μg/mL rhErbB3/Fc (R&D systems, Cat. No. 348-RB) in PBS (Invitrogen, Cat. No. 14040-133) for one hour at room temperature with no agitation. The plates then were washed three times with PBS+0.1% Tween20 (Sigma P5927) and blocked with 200 μl of 100% Horse Serum, heat inactivated (GIBCO, Cat. No. 26050-088) for 1.5 hours at room temperature. After washing the plates three times with PBS+0.1% Tween, 25 μl of the antibody dilutions were added to the plates for another hour at room temperature with agitation. […] The plates then were washed three times with PBS+0.1% Tween, and 150 μl of 1× read buffer (Meso Scale Discovery, Cat. No. R92TC-1) was added to each well before the plates were analyzed on a Sector® Imager 2400 (Meso Scale Discovery) instrument.

[2] = target: T1, recombinant human ErbB3/Fc fusion …; assay: ECL (MSD) competition: rhErbB3/Fc coated on the plate, antibody dilutions, then NRG1-β1 at 0.25 µg/ml; bound NRG1-β1 detected

IC50 [1]: 0.113 nM
IC50 (read off the curve) [2]: ~0.1 nM
B1: U1-53 (antibody, V domains shown)
VH: EVQLVESGGGLVQPGGSLRLSCAASGFTFSIYSMNWVRQAPGKGLEWVSYISSSSSTIYYADSVKGRFTISRDNAKNSLYLQMNSLRDEDTAVYYCARDRGDFDAFDIWGQGTMVTVSS
VL: DIQMTQSPSSLSASVGDRVTITCQASQDITNYLNWYQQKPGKAPKLLIYDASNLETGVPSRFSGSGSGTDFTFTISSLQPEDIATYNCQQCENFPITFGQGTRLEIK
